Reference: PMC5835112

Target: CsrA (Yersinia pseudotuberculosis, UniProt B1JJ99 1-61)
Experiment: analytical SEC; 50 uM CsrA, 25 uM RNA
Settings: protein: recombinant; tags: His6 (pET28a); chain copies: 2; hairpin (predicted)

CsrA, sequence (B1JJ99 whole entry): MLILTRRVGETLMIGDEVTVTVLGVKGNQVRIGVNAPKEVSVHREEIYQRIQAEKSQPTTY

Binder: CUUUCACUUUCUUAACAUGAUACAGGAGGGCUUAUG (structured_RNA) [urease SD RNA (Pure-CsrA RNA)]
- binding result: binds
